Results taken from patent US20110301228A1.

Target: 5-FAM/QXL520 labeled MMP substrate FRET peptide (SensoLyte 520 MMP-1 Assay Kit, AnaSpec)
Assay: cell-based or functional assay

## recombinant human MMP1 (wild-type), secreted by AdhGRE.MMP1-infected HTM cells and activated with APMA (active form, 41 kDa) (from UniProt P03956 100-469) (enzyme)
  relative fluorescence units released on cleavage of the FRET peptide (medium of AdhGRE.MMP1-infected, DEX-treated cells) (relative fluorescence units): 59000
  relative fluorescence units released on cleavage of the FRET peptide (medium of AdhGRE.MMP1-infected, untreated cells) (relative fluorescence units): 5710
